# Measured values published in patent US20110171215A1 (published 2011).
# B1: Clone 2 anti-PD-1 antibody (antibody, V domains shown)
# VH: QVQLQQPGAELVKPGASVKLSCKASGYTFTTYYLYWVRQRPGQGLEWIGGINPSNGGTNFNEKFKSKATLTVDKSSSTAYMQLNSLTSEDSAVYYCTRRDYRYDRGFDYWGQGTSVTV
# VL: DIVLTQSPASLAVSLGQRATISCRASKSVSTSGFNYIHWYQQKPGQPPKLLIYLASNLESGVPARFSGSGSGTDFTLNIHPVEDEDAATYYCQHSRELPLTFGAGTKLEIK
# B2: Clone 10 anti-PD-1 antibody (antibody, V domains shown)
# VH: DVQLQESGPGLVKPSQSLSLTCTVTGYSITSDYAWNWIRQFPGNKLEWMGYINYSGSTSYNPSLKSRISITRDTSKNQFFLQLNSVTTEDTATYYCARWIGSSAWYFDVWGAGTTVTV
# VL: DVLMTQTPLSLPVSLGDQASISCRSGQNIVHSNGNTYLEWYLQKPGQSPKLLIYKVSNRFFGVPDRISGSGSGTDFTLKISRVEAEDLGVYFCFQGSHVPFTFGSGTKLEIK
# B3: Clone 19 anti-PD-1 antibody (antibody, V domains shown)
# VH: QVQLQQSGAELVKPGASVKMSCKAFGYTFTTYPIEWMKQNHGKSLEWIGNFHPYNDDTKYNEKFKGKAKLTVEKSSTTVYLELSRLTSDDSAVYYCARENYGSHGGFVYWGQGTLVTV
# VL: ENVLTQSPAIMSASPGEKVTMTCRASSSVISSYLHWYQQKSGASPKLWIYSTSNLASGVPDRFSGSGSGTSYSLTISSVEAEDAATYYCQQYNGYPLTFGAGTKLEIK
# Biological target: Monomeric soluble human PD-1 (human, UniProt Q15116 25-170)
# Test: SPR
# Monomeric soluble human PD-1, sequence (Q15116 25-170): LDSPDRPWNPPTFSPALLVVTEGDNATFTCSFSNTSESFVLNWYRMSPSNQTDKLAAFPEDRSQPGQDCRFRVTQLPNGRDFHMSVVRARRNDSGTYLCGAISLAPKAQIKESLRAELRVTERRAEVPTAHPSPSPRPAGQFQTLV
row,koff [s⁻¹],Binder
1,~0.0027,B1
2,~0.4,B2
3,~0.0013,B3
